Assay [1] concerns the target D614G-Hexapro (WT) spike ectodomain (SARS-CoV-2 Wuhan-Hu-1 D614G, D614G). Description: BLI. For orientation: In BLI a coated tip is dipped into the sample, and binding shifts an interference pattern.
The target of assay [2] is Omicron BA.1 spike protein ectodomain (BLI) (SARS-CoV-2 Omicron BA.1, strain). Description: BLI.

Where a chain is given by its changes, count along the chain named.

B1: 0324-LN3_T65H (antibody, V domains shown)
VH: QVQLQQWGPGLVNPSETLSLTCSVSGGSFATENYYWSWIRQHPGEGLEWIGNIYFSGNHYYNPSLNNRFTISFDTSKNHLSLKLPSVTAADTAVYYCARGTIYFDLSGYRRVDPFHIWGQGTMVIVSS
VL: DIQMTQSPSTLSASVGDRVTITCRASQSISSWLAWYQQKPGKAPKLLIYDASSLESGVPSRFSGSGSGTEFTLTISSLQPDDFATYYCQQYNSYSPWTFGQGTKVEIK
notes: source: Expi293F, transfected
For the molecule B1, in assay [1], the Kd – broadly, the constant that tells how readily two partners part at equilibrium – turned out to be 0.276 nM; the koff (usually the first-order rate constant of dissociation) stood at 0.000291 s⁻¹; the kon (commonly the second-order rate constant of association) is 1.06e+06 M⁻¹ s⁻¹. In assay [2], this molecule had an equilibrium dissociation constant (Kd) of 1.16 nM, a koff of 0.000413 s⁻¹ and a kon of 356000 M⁻¹ s⁻¹.

B2: 0343-MN3_T65H (antibody, V domains shown)
VH: B1 VH with L106M
VL: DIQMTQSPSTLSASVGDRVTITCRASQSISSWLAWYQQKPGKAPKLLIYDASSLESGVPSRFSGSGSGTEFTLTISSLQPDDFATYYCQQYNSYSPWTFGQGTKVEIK
notes: source: Expi293F, transfected
B2: in assay [1], binding was put at a Kd of 7760 nM, the koff came to 0.000643 s⁻¹ and the kon worked out at 82.8 M⁻¹ s⁻¹.

B3: 0304-IN3_T65G (antibody, V domains shown)
VH: B1 VH with H59G, L106I
VL: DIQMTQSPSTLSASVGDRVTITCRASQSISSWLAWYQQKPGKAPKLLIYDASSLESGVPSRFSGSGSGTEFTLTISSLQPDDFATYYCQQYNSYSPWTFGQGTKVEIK
notes: source: Expi293F, transfected
Take B3: in assay [1], the affinity, expressed as Kd, was 45.4 nM; the koff was 0.000221 s⁻¹; the kon amounted to 4880 M⁻¹ s⁻¹.

B4: 0384-YN3_T65L (antibody, V domains shown)
VH: B1 VH with H59L, L106Y
VL: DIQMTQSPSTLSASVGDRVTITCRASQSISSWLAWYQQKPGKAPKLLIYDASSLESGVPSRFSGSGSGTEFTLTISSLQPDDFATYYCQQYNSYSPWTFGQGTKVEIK
notes: source: Expi293F, transfected
In assay [1], B4 gave a Kd of 4.26 nM, a koff of 0.000957 s⁻¹ and a kon of 225000 M⁻¹ s⁻¹.

B5: 0387-YN3_T65P (antibody, V domains shown)
VH: B1 VH with H59P, L106Y
VL: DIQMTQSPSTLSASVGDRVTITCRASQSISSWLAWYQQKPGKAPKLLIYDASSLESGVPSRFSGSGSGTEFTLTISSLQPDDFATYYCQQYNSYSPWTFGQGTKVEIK
notes: source: Expi293F, transfected
In assay [2], B5 came in with a Kd of 9.21 nM, a koff of 9.1e-05 s⁻¹ and a kon of 9880 M⁻¹ s⁻¹.

B6: 0339-MN3_T65D (antibody, V domains shown)
VH: B1 VH with H59D, L106M
VL: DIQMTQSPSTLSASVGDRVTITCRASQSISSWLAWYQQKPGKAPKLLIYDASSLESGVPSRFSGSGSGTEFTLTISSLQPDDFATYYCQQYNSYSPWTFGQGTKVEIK
notes: source: Expi293F, transfected
As for B6, in assay [1], the Kd worked out at 5.95 nM, the koff was 2e-05 s⁻¹ and the kon was 3350 M⁻¹ s⁻¹.

B7: 0390-YN3_T65S (antibody, V domains shown)
VH: B1 VH with H59S, L106Y
VL: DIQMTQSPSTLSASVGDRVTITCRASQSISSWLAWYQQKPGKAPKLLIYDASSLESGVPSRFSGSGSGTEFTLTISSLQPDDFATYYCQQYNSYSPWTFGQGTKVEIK
notes: source: Expi293F, transfected
As for B7, in assay [1], the affinity, expressed as Kd, was 830 nM; the koff amounted to 0.00105 s⁻¹; the association rate constant (kon) is 1270 M⁻¹ s⁻¹.

B8: 0355-MN3_T65W (antibody, V domains shown)
VH: B1 VH with H59W, L106M
VL: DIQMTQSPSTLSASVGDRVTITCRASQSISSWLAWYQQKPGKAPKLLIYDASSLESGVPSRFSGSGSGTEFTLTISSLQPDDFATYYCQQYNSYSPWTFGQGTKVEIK
notes: source: Expi293F, transfected
In assay [1], B8 came in with a Kd of 0.474 nM, a koff of 0.00041 s⁻¹ and a kon of 865000 M⁻¹ s⁻¹.

B9: 0389-YN3_T65R (antibody, V domains shown)
VH: B1 VH with H59R, L106Y
VL: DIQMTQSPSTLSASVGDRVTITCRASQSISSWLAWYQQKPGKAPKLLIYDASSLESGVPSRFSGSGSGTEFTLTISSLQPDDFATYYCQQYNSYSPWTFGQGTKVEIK
notes: source: Expi293F, transfected
In assay [1], B9 registered a Kd of 839 nM, a koff of 0.00107 s⁻¹ and a kon of 1280 M⁻¹ s⁻¹.

B10: 0321-LN3_T65E (antibody, V domains shown)
VH: B1 VH with H59E
VL: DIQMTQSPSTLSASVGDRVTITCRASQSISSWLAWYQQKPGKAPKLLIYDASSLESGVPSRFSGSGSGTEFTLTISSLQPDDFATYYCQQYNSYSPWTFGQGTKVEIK
notes: source: Expi293F, transfected
For the molecule B10, in assay [1], the Kd amounted to 378 nM, the koff came to 0.00157 s⁻¹ and the kon worked out at 4150 M⁻¹ s⁻¹.

B11: 0310-IN3_T65N (antibody, V domains shown)
VH: B1 VH with H59N, L106I
VL: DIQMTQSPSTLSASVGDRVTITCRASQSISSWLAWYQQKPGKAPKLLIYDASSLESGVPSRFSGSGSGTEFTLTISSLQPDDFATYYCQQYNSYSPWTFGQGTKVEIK
notes: source: Expi293F, transfected
B11: in assay [2], the Kd amounted to 15.2 nM, the koff turned out to be 0.000949 s⁻¹ and the kon turned out to be 62500 M⁻¹ s⁻¹.

B12: 0320-LN3_T65D (antibody, V domains shown)
VH: B1 VH with H59D
VL: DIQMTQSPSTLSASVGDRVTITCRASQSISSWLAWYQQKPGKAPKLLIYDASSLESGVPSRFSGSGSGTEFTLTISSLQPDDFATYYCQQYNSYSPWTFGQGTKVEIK
notes: source: Expi293F, transfected
In assay [1], B12 returned a Kd of 226 nM, a koff of 0.000716 s⁻¹ and a kon of 3160 M⁻¹ s⁻¹.

B13: 0368-N3_T65P (antibody, V domains shown)
VH: B1 VH with H59P, L106R
VL: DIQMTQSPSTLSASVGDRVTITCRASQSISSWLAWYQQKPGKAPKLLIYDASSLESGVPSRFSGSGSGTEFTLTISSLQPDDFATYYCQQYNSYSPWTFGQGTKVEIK
notes: source: Expi293F, transfected
On to B13, for which, in assay [1], the affinity, expressed as Kd, was 52.9 nM; the koff was found to be 0.000253 s⁻¹; the kon came out at 4790 M⁻¹ s⁻¹.

B14: 0365-N3_T65L (antibody, V domains shown)
VH: B1 VH with H59L, L106R
VL: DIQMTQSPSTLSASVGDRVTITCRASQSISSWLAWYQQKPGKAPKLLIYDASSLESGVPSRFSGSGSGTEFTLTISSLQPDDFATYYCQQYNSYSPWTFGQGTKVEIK
notes: source: Expi293F, transfected
As to B14, in assay [1], the Kd came out at 387 nM, the koff was 0.000123 s⁻¹ and the kon is 318 M⁻¹ s⁻¹.

B15: 0393-YN3_T65W (antibody, V domains shown)
VH: B1 VH with H59W, L106Y
VL: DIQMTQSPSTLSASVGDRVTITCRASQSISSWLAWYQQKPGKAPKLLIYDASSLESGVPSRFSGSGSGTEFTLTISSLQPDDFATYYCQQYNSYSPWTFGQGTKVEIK
notes: source: Expi293F, transfected
Consider B15, for which, in assay [1], the Kd was 189 nM, the koff amounted to 0.000535 s⁻¹ and the kon stood at 2840 M⁻¹ s⁻¹.

B16: 0364-N3_T65K (antibody, V domains shown)
VH: B1 VH with H59K, L106R
VL: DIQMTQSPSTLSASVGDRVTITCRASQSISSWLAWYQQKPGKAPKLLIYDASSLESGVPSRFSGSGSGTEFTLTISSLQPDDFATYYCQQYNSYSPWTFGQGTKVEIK
notes: source: Expi293F, transfected
For the molecule B16, in assay [1], the Kd is 288 nM, the off-rate constant (koff) worked out at 9.92e-05 s⁻¹ and the kon came out at 344 M⁻¹ s⁻¹.

B17: 0301-IN3_T65D (antibody, V domains shown)
VH: B1 VH with H59D, L106I
VL: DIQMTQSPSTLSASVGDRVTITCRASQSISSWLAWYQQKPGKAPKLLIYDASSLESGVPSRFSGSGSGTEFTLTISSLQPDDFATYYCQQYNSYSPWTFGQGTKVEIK
notes: source: Expi293F, transfected
In assay [1], B17 gave a Kd of 306 nM, a koff of 6.75e-05 s⁻¹ and a kon of 221 M⁻¹ s⁻¹. In assay [2], the Kd is 6.38 nM, the koff was 0.000601 s⁻¹ and the kon came out at 94200 M⁻¹ s⁻¹.

B18: 0361-N3_T65G (antibody, V domains shown)
VH: B1 VH with H59G, L106R
VL: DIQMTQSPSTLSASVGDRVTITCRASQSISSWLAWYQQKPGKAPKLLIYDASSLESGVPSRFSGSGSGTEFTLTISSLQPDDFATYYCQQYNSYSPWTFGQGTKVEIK
notes: source: Expi293F, transfected
In the case of B18, in assay [1], the Kd worked out at 549 nM, the off-rate (koff) amounted to 0.000177 s⁻¹ and the kon was found to be 323 M⁻¹ s⁻¹.

B19: 0369-N3_T65Q (antibody, V domains shown)
VH: B1 VH with H59Q, L106R
VL: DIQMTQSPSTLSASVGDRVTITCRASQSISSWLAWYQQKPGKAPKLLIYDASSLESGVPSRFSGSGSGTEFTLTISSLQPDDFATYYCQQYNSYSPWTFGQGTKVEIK
notes: source: Expi293F, transfected
In assay [1], B19 had a Kd of 65.4 nM, a koff of 0.000113 s⁻¹ and a kon of 1730 M⁻¹ s⁻¹.

B20: 0332-LN3_T65R (antibody, V domains shown)
VH: B1 VH with H59R
VL: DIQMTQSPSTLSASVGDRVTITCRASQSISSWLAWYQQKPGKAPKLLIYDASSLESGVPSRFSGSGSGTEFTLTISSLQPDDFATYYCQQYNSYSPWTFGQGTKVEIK
notes: source: Expi293F, transfected
On to B20, for which, in assay [2], the Kd turned out to be 38.9 nM, the koff was determined as 0.0018 s⁻¹ and the kon came out at 46200 M⁻¹ s⁻¹.

B21: 0376-YN3_T65A (antibody, V domains shown)
VH: B1 VH with H59A, L106Y
VL: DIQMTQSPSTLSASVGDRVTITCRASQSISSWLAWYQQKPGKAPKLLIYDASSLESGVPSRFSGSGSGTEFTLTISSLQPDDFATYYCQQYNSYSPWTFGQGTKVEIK
notes: source: Expi293F, transfected
Take B21: in assay [1], the Kd came out at 1.82 nM, the koff was determined as 0.000425 s⁻¹ and the kon is 233000 M⁻¹ s⁻¹.

B22: 0366-N3_T65M (antibody, V domains shown)
VH: B1 VH with H59M, L106R
VL: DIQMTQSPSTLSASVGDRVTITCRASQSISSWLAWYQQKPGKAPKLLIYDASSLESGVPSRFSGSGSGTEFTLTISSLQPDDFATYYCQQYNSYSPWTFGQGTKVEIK
notes: source: Expi293F, transfected
B22: in assay [1], binding was put at a Kd of 8.15 nM, the koff is 2.08e-06 s⁻¹ and the kon is 255 M⁻¹ s⁻¹.

B23: 0382-YN3_T65I (antibody, V domains shown)
VH: B1 VH with H59I, L106Y
VL: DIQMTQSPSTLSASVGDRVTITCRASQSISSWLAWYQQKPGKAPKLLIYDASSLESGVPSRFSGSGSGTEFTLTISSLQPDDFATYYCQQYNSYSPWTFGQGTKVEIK
notes: source: Expi293F, transfected
On to B23, for which, in assay [1], binding was characterised by a dissociation constant (Kd) of 2690 nM, the koff was determined as 0.000811 s⁻¹ and the kon was determined as 302 M⁻¹ s⁻¹.

B24: 0305-IN3_T65H (antibody, V domains shown)
VH: B1 VH with L106I
VL: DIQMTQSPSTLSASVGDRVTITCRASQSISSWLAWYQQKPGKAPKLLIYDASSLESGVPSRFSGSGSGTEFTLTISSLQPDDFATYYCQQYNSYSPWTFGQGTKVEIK
notes: source: Expi293F, transfected
For B24, in assay [1], binding was characterised by a dissociation constant (Kd) of 387 nM, the koff was found to be 9.99e-05 s⁻¹ and the kon was 258 M⁻¹ s⁻¹. Further, in assay [2], the Kd is 2.89 nM, the koff was 0.000368 s⁻¹ and the kon was 128000 M⁻¹ s⁻¹.

B25: 0314-IN3_T65S (antibody, V domains shown)
VH: B1 VH with H59S, L106I
VL: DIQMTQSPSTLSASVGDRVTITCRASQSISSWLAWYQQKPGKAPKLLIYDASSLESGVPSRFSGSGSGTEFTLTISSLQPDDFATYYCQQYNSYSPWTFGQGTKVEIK
notes: source: Expi293F, transfected
In assay [2], B25 showed a Kd of 68.7 nM, a koff of 0.00114 s⁻¹ and a kon of 16600 M⁻¹ s⁻¹.

B26: 0357-N3_T65A (antibody, V domains shown)
VH: B1 VH with H59A, L106R
VL: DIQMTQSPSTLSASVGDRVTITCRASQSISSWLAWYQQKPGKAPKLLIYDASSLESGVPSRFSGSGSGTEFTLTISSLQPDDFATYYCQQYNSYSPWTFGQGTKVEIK
notes: source: Expi293F, transfected
For the molecule B26, in assay [1], the Kd was found to be 0.562 nM, the off-rate constant (koff) was 0.000124 s⁻¹ and the kon came to 221000 M⁻¹ s⁻¹.

B27: 0308-IN3_T65L (antibody, V domains shown)
VH: B1 VH with H59L, L106I
VL: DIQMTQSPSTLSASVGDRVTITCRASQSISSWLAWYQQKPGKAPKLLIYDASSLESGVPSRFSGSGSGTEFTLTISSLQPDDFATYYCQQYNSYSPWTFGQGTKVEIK
notes: source: Expi293F, transfected
B27: in assay [1], the Kd was determined as 515 nM, the koff came to 0.000134 s⁻¹ and the kon stood at 261 M⁻¹ s⁻¹. In assay [2], this molecule returned a Kd of 3.92 nM, a koff of 0.000364 s⁻¹ and a kon of 93000 M⁻¹ s⁻¹.

B28: 0323-LN3_T65G (antibody, V domains shown)
VH: B1 VH with H59G
VL: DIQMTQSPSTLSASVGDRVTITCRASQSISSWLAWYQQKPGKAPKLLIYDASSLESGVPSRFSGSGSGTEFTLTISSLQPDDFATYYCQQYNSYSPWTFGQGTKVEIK
notes: source: Expi293F, transfected
As to B28, in assay [1], the Kd stood at 145 nM, the koff is 0.000932 s⁻¹ and the kon was 6420 M⁻¹ s⁻¹.

B29: 0306-IN3_T65I (antibody, V domains shown)
VH: B1 VH with H59I, L106I
VL: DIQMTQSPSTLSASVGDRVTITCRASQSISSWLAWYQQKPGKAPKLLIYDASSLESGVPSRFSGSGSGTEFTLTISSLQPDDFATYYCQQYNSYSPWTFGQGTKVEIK
notes: source: Expi293F, transfected
As for B29, in assay [1], the affinity, expressed as Kd, was 524 nM; the koff was determined as 0.000136 s⁻¹; the kon was determined as 259 M⁻¹ s⁻¹. In assay [2], this molecule registered a Kd of 4.36 nM, a koff of 0.000517 s⁻¹ and a kon of 119000 M⁻¹ s⁻¹.

B30: 0303-IN3_T65F (antibody, V domains shown)
VH: B1 VH with H59F, L106I
VL: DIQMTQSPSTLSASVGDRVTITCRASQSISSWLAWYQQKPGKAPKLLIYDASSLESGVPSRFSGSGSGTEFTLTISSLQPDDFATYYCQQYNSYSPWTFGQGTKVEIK
notes: source: Expi293F, transfected
In assay [1], B30 had a Kd of 0.129 nM, a koff of 0.000115 s⁻¹ and a kon of 887000 M⁻¹ s⁻¹. Further, in assay [2], the Kd was found to be 6.04 nM, the koff stood at 0.000575 s⁻¹ and the kon was found to be 95200 M⁻¹ s⁻¹.

B31: 0385-YN3_T65M (antibody, V domains shown)
VH: B1 VH with H59M, L106Y
VL: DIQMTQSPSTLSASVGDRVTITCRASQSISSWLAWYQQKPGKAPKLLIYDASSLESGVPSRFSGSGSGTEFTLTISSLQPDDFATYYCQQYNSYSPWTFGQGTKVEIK
notes: source: Expi293F, transfected
As for B31, in assay [1], binding was put at a Kd of 9.93 nM, the koff is 0.00157 s⁻¹ and the kon turned out to be 158000 M⁻¹ s⁻¹.

B32: 0336-LN3_T65W (antibody, V domains shown)
VH: B1 VH with H59W
VL: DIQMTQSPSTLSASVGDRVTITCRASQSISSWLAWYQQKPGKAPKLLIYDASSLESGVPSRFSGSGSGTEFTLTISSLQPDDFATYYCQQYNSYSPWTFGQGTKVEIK
notes: source: Expi293F, transfected
In assay [1], B32 registered a Kd of 0.15 nM, a koff of 0.000117 s⁻¹ and a kon of 782000 M⁻¹ s⁻¹.

B33: 0375-N3_T65Y (antibody, V domains shown)
VH: B1 VH with H59Y, L106R
VL: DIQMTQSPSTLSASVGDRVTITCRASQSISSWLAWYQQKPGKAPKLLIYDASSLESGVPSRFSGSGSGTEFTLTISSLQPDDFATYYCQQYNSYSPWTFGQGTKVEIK
notes: source: Expi293F, transfected
In turn, B33 yielded an association rate constant (kon) in assay [1] of 265 M⁻¹ s⁻¹.

B34: 0325-LN3_T65I (antibody, V domains shown)
VH: B1 VH with H59I
VL: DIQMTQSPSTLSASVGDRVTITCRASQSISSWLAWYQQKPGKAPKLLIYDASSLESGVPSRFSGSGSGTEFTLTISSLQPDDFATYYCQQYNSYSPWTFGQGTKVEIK
notes: source: Expi293F, transfected
In assay [1], B34 showed a Kd of 6.57 nM, a koff of 0.00131 s⁻¹ and a kon of 199000 M⁻¹ s⁻¹.

B35: 0300-IN3_T65A (antibody, V domains shown)
VH: B1 VH with H59A, L106I
VL: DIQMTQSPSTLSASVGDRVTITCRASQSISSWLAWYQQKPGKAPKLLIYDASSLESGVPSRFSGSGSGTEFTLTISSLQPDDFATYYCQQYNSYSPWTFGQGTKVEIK
notes: source: Expi293F, transfected
For B35, in assay [1], the kon was 210 M⁻¹ s⁻¹. Moreover, in assay [2], the equilibrium dissociation constant (Kd) was 3.61 nM, the koff worked out at 0.000404 s⁻¹ and the kon stood at 112000 M⁻¹ s⁻¹.

B36: 0322-LN3_T65F (antibody, V domains shown)
VH: B1 VH with H59F
VL: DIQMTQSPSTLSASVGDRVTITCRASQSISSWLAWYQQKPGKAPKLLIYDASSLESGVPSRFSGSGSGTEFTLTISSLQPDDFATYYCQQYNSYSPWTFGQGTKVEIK
notes: source: Expi293F, transfected
Consider B36, for which, in assay [1], the affinity, expressed as Kd, was 2.52 nM; the koff was 0.000726 s⁻¹; the kon turned out to be 288000 M⁻¹ s⁻¹.

B37: 0328-LN3_T65M (antibody, V domains shown)
VH: B1 VH with H59M
VL: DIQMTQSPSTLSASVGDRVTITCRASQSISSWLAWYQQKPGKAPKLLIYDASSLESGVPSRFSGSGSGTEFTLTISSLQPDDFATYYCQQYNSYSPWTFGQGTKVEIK
notes: source: Expi293F, transfected
In the case of B37, in assay [1], binding was characterised by a dissociation constant (Kd) of 2.99 nM, the koff is 0.00124 s⁻¹ and the kon turned out to be 415000 M⁻¹ s⁻¹.

For the origin of these results see paper PMC10713552 (Communications Biology, 2023).
